# Assay results as given in patent US9618524B2, “Method, composition, isolation and identification of a plaque particle and related biomarker” (Plaxgen Inc., priority 2012, dated 2017).
# Experiments:
# Assay in all cases: Mass spectroscopy proteomics, semi-quantitative binding affinity of serum proteins (plaqueproteome, Table 2)
# Conditions in all cases: higher number = stronger affinity
# [1] = biological target: T1, alpha-synuclein plaque particles (Homo sapiens, UniProt P37840)
# T1 construct: 140 amino acids polypeptide
# Procedure: To prepare oligomers/aggregates of human alpha-synuclein (140 amino acids polypeptide), 1 mg of the recombinant alpha-synuclein protein was suspended in 1 mL of PBS and the sample was incubated at 37° C. for 2 hrs. After incubation, all the samples were centrifuged for 5 min. at 5000 rpm to remove precipitate, if any, and the supernatant containing oligomers/aggregates were used in vitro plaque particles formation assay. For detecting alpha-synuclein plaque particles Thioflavin S (Ex/Em=430 nm/550 nm) amyloid binding fluorescent dye (10 μg) was used.
# Similarly, to isolate alpha-synuclein plaque particles, diluted plasma or serum samples obtained from AD subjects were used for incubation with alpha-synuclein plaque oligomers/aggregates. Each assay was performed in 1 mL reaction (800 μL of 50% plasma or serum) and 200 μL (30 μg) of the alpha-synuclein aggregates and the mixtures were incubated at 37° C. for 1 hr. To the mixture Thioflavin S dye (120 μg) was added and the sample was incubated for additional 30 min at 37° C. After the incubation, the mixture was directly used for sample acquisition using flow cytometer (FACS ARIA II, BD Biosciences, San Jose, Calif.). After initial detection of alpha-synuclein plaque particles, gates were drawn in the acquisition blot to separately sort and isolate fluorescently labeled alpha-synuclein particles.
# (§1) For preparing trypsin digested peptide sequences, the isolated plaque particles were centrifuged at 10000 rpm for 5 min and the pellet containing plaque particles was resuspended in 100 μl PBS buffer. Stock solutions of digestion buffer (Ammonium Biocarbonate 50 mM), reducing buffer (DDT 100 mM) and alkylation buffer (lodoaceamide 100 mM) were prepared and stored at −20° C. for up to two months. For trypsin digestion, 100 μl of each plaque particles (2000 of Abeta-42, cholesterol, Tau and alpha-synuclein) were precipitated using cold acetone −80° C. by adding 4X's the volume. The samples were placed on dry ice for 10 min with intermittent vortex. Next, the samples were centrifuged at 4° C. at 10000 G for 10 min. Top layer of acetone was carefully removed from the tube with care not to disturb the plaque particles pellet. The samples were speed-vac for 10 min to ensure all acetone has been boiled away. The plaque particles pellet were reconstituted with 15 μl 8M Urea 100 mM Ammonium bicarbonate stock and 20 μl protease max solution. The protease max solution (Promega, Madison, Wis.) was prepared from stock by adding 60 μl 50 mM Ammonium bicarbonate and used for 3 solution digests (20 μl each). […] The tubes were incubated at 55° C. for 30 minutes. The tubes were then removed and brought to the room temperature followed by addition of 3.2 μl of 1M acrylamide and incubated at room temperature for 30 minutes. To the sample, 63 μL of 50 mM Ammonium bicarbonate was added for a final volume of 98 μl and 2 μl of trypsin (10 μg, Trypsin/Lys C Mix). After mixing the solution with pipet the samples were incubated at 37° C. overnight. After the overnight digest, the tryptic digest were quenched and acidified by adding 10 μl of 50% formic acid/water stock dilution. The samples were centrifuged at 10000 G for 2 minutes and purified using stage tip and used for MS/Mass analysis.
# (§2) All MS/MS samples were analyzed using Sequest (Thermo Fisher Scientific, San Jose, Calif., USA; version 1.0). Sequest was set up to search the SUMS_uniprot_Human database (35847 entries) assuming the digestion enzyme strict trypsin. Sequest was searched with a fragment ion mass tolerance of 1.00 Da and a parent ion tolerance of 20 PPM. Propionamide of cysteine was specified in Sequest as a fixed modification. Oxidation of methionine and phospho of serine, threonine and tyrosine were specified in Sequest as variable modifications.
# Scaffold (version Scaffold_4.2.1, Proteome Software Inc., Portland, Oreg.) was used to validate MS/MS based peptide and protein identifications.
# [2] = system: Low density cholesterol (Chl small) plaque particles; design: species or system human
# Procedure: (§3) The goal was to isolate plaque particles synthesized in the bio-fluids in a relatively pure form to enable their subsequent use for identification of components that contribute to the plaque formation. In order to isolate cholesterol plaque particles, the plasma or serum samples obtained from atherosclerotic subjects were first centrifuged at 5,000 rpm for 5 min and the supernatants were transferred to new centrifuge tubes. Next, the supernatants were diluted in PBS to make 50% of the serum and used for incubation with cholesterol oligomers/aggregates. Each assay was performed in 1 mL reaction (800 μL of 50% plasma or serum) and 200 μL (30 μg) of the Cholesterol aggregates and the mixtures were incubated at 37° C. for 1 hr After the incubation, the mixture was directly used for sample acquisition using flow cytometer (FACS ARIA II, BD Biosciences, San Jose, Calif.). […] In order to isolate these fractions, three sets of gates were drawn in the acquisition blot to separately sort and isolate High density or high complex cholesterol particles, Low density or low complex cholesterol particles and both High and low density cholesterol particles together.
# as §1, §2
# (§4) Scaffold (version Scaffold_4.2.1, Proteome Software Inc., Portland, Oreg.) was used to validate MS/MS based peptide and protein identifications. […] Protein probabilities were assigned by the Protein Prophet algorithm (Nesvizhskii, Al et al 2003).
# [3] = system: High Density cholesterol (Chl Large) plaque particles; design: species or system human
# Procedure: as §3, §1, §2, §4
# [4] = system: Tau plaque particles; design: species or system human
# Procedure: For Tau-74 (74-102) (Exon 3/Insert 2 domain) preparation, 1 mg of Tau-74 was suspended in 1 mL of PBS and the sample was incubated at 37° C. for 2 hrs. Similarly for preparing Tau-275 (275-305) (Repeat 2 domain) 1 mg of the peptide was suspended in 1 mL of PBS and the sample was incubated at 37° C. for 2 hrs. After incubation, all the samples were centrifuged for 5 min. at 5000 rpm to remove precipitate, if any, and the supernatant containing oligomers/aggregates were used for in vitro amyloid plaque particles formation assay. For detecting Tau plaque particles, Thioflavin S (Ex/Em=430 nm/550 nm) amyloid binding fluorescent dye (10 μg) was used in the assay.
# Next, to isolate Tau plaque particles, as performed for Abeta-42 and Abeta-28 plaque particles isolation, diluted serum samples were used for incubation separately with Tau-45, Tau-74 and Tau-275 oligomers/aggregates. Each assay was performed in 1 mL reaction (800 μL of 50% plasma or serum) and 200 μL (30 μg) of each Tau aggregates and the mixtures were incubated at 37° C. for 1 hr. To the each mixture Thioflavin S dye (120 μg) was added and the sample was incubated for additional 30 min at 37° C. After the incubation, each sample was directly used for sample acquisition using flow cytometer (FACS ARIA II, BD Biosciences, San Jose, Calif.). After initial detection of Tau plaque particles, gates were drawn in the acquisition blot to separately sort and isolate fluorescently labeled Tau plaque particles.
# as §1, §2
# [5] = biological target: T2, Abeta-42 plaque particles (Homo sapiens, UniProt P05067)
# T2 construct: Abeta 1-42
# Procedure: Next to isolate serum derived Abeta-42 plaque particles, the plasma or serum samples obtained from AD subjects were first centrifuged at 5,000 rpm for 5 min and the supernatants were transferred to new centrifuge tubes. Next, the supernatants were diluted in PBS to make 50% of the serum and plasma samples and used for incubation with Abeta-42 plaque oligomers/aggregates. Each assay was performed in 1 mL reaction (800 μL of 50% plasma or serum) and 200 μL (30 μg) of the Abeta-42 aggregates and the mixtures were incubated at 37° C. for 1 hr. To the mixture Thioflavin S dye (120 μg) was added and the sample was incubated for additional 30 min at 37° C. After the incubation, the mixture was directly used for sample acquisition using flow cytometer (FACS ARIA II, BD Biosciences, San Jose, Calif.). After initial detection of Abeta-42 plaque particles in the acquisition blot, gates were drawn in fluorescent dot blot to separately sort and isolate fluorescently labeled Abeta-42 particles.
# as §1, §2
# as §4, with “2003). […] Proteins sharing significant peptide evidence were grouped into clusters. Proteins were annotated with GO terms from NCBI (downloaded Jan. 17, 2014).” for “2003).”
Molecule,Semi-quantitative analysis of proteins binding to different plaque particles: Synuclein [1],Semi-quantitative analysis of proteins binding to different plaque particles: Chl small [2],Semi-quantitative analysis of proteins binding to different plaque particles: Chl Large [3],Semi-quantitative analysis of proteins binding to different plaque particles: Tau [4],Semi-quantitative analysis of proteins binding to different plaque particles: Abeta-42 [5]
Alpha-1-acid glycoprotein 2 (protein) QIPLCANLVPVPITNATLDRITGKWFYIASAFRNEEYNKSVQEIQATFFYFTPNKTEDTIFLREYQTRQNQCFYNSSYLNVQRENGTVSRYEGGREHVAHLLFLRDTKTLMFGSYLDDEKNWGLSFYADKPETTKEQLGEFYEALDCLCIPRSDVMYTDWKKDKCEPLEKQHEKERKQEEGES,10,7,5,9,9
Alpha-2-antiplasmin (protein) NQEQVSPLTLLKLGNQEPGGQTALKSPPGVCSRDPTPEQTHRLARAMMAFTADLFSLVAQTSTCPNLILSPLSVALALSHLALGAQNHTLQRLQQVLHAGSGPCLPHLLSRLCQDLGPGAFRLAARMYLQKGFPIKEDFLEQSEQLFGAKPVSLTGKQEDDLANINQWVKEATEGKIQEFLSGLPEDTVLLLLNAIHFQGFWRNKFDPSLTQRDSFHLDEQFTVPVEMMQARTYPLRWFLLEQPEIQVAHFPFKNNMSFVVLVPTHFEWNVSQVLANLSWDTLHPPLVWERPTKVRLPKLYLKHQMDLVATLSQLGLQELFQAPDLRGISEQSLVVSGVQHQSTLELSEVGVEAAAATSIAMSRMSLSSFSVNRPFLFFIFEDTTGLPLFVGSVRNPNPSAPRELKEQQDSPGNKDFLQSLKGFPRGDKLFGPDLKLVPPMEEDYPQFGSPK,5,3,6,5,0
Protein AMBP (protein) GPVPTPPDNIQVQENFNISRIYGKWYNLAIGSTCPWLKKIMDRMTVSTLVLGEGATEAEISMTSTRWRKGVCEETSGAYEKTDTDGKFLYHKSKWNITMESYVVHTNYDEYAIFLTKKFSRHHGPTITAKLYGRAPQLRETLLQDFRVVAQGVGIPEDSIFTMADRGECVPGEQEPEPILIPRVRRAVLPQEEEGSGGGQLVTEVTKKEDSCQLGYSAGPCMGMTSRYFYNGTSMACETFQYGGCMGNGNNFVTEKECLQTCRTVAACNLPIVRGPCRAFIQLWAFDAVKGKCVLFPYGGCQGNGNKFYSEKECREYCGVPGDGDEELLRFSN,5,5,5,10,5
Zinc-alpha-2-glycoprotein (protein) QENQDGRYSLTYIYTGLSKHVEDVPAFQALGSLNDLQFFRYNSKDRKSQPMGLWRQVEGMEDWKQDSQLQKAREDIFMETLKDIVEYYNDSNGSHVLQGRFGCEIENNRSSGAFWKYYYDGKDYIEFNKEIPAWVPFDPAAQITKQKWEAEPVYVQRAKAYLEEECPATLRKYLKYSKNILDRQDPPSVVVTSHQAPGEKKKLKCLAYDFYPGKIDVHWTRAGEVQEPELRGDVLHNGNGTYQSWVVVAVPPQDTAPYSCHVQHSSLAQPLVVPWEAS,7,5,4,4,5
